This note sets out measurements from publication PMC5773591, “Structural basis of trans-synaptic interactions between PTPδ and SALMs for inducing synapse formation” (Nature Communications, 2018).

B1: human SALM5 LRR–Ig-His6 (residues 18–378) [human] / itself (parent)
chain: QICPKRCVCQILSPNLATLCAKKGLLFVPPNIDRRTVELRLADNFVTNIKRKDFANMTSLVDLTLSRNTISFITPHAFADLRNLRALHLNSNRLTKITNDMFSGLSNLHHLILNNNQLTLISSTAFDDVFALEELDLSYNNLETIPWDAVEKMVSLHTLSLDHNMIDNIPKGTFSHLHKMTRLDVTSNKLQKLPPDPLFQRAQVLATSGIISPSTFALSFGGNPLHCNCELLWLRRLSREDDLETCASPPLLTGRYFWSIPEEEFLCEPPLITRHTHEMRVLEGQRATLRCKARGDPEPAIHWISPEGKLISNATRSLVYDNGTLDILITTVKDTGAFTCIASNPAGEATQIVDLHIIKLP

The assay covers variants of B1. The assay is described as follows: SEC-MALS. The following applies: with itself; read off a plot.
QICPKRCVCQILSPNLATLCAKKGLLFVPPNIDRRTVELRLADNFVTNIKRKDFANMTSLVDLTLSRNTISFITPHAFADLRNLRALHLNSNRLTKITNDMFSGLSNLHHLILNNNQLTLISSTAFDDVFALEELDLSYNALETIPWDAVEKMVSLHTLSLDHNMIDNIPKGTFSHLHKMTRLDVTSNKLQKLPPDPLFQRAQVLATSGIISPSTFALSFGGNPLHCNCELLWLRRLSREDDLETCASPPLLTGRYFWSIPEEEFLCEPPLITRHTHEMRVLEGQRATLRCKARGDPEPAIHWISPEGKLISNATRSLVYDNGTLDILITTVKDTGAFTCIASNPAGEATQIVDLHIIKLP [chain 1 N141A]: the screen value was determined as 56 kDa.
